Reference: publication PMC10518940

Target: T1, HA-CXCR4-Rluc8 (human), P61073
T1 chain: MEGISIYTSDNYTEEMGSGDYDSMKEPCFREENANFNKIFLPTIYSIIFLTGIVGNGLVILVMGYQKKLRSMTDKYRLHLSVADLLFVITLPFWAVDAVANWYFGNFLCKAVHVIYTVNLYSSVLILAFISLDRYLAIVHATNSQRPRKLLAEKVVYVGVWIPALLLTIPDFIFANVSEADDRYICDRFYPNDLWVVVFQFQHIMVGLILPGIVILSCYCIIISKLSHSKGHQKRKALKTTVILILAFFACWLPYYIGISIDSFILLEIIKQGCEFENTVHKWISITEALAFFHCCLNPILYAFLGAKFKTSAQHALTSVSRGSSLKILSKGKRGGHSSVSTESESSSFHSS
Assay: FRET or BRET; BRET2 saturation in HEK293A cells: fixed amount of GPCR-Rluc8 plasmid, increasing amounts of GPCR-GFP2 plasmid (0 to 390 ng); coelenterazine 400a 5 μM; BRET50 from the net BRET ratio
Conditions: remark: other sources report otherwise

BRET50: 0.244
B1: CXCR4-GFP2, P61073 1-352 (receptor)
chain: MEGISIYTSDNYTEEMGSGDYDSMKEPCFREENANFNKIFLPTIYSIIFLTGIVGNGLVILVMGYQKKLRSMTDKYRLHLSVADLLFVITLPFWAVDAVANWYFGNFLCKAVHVIYTVNLYSSVLILAFISLDRYLAIVHATNSQRPRKLLAEKVVYVGVWIPALLLTIPDFIFANVSEADDRYICDRFYPNDLWVVVFQFQHIMVGLILPGIVILSCYCIIISKLSHSKGHQKRKALKTTVILILAFFACWLPYYIGISIDSFILLEIIKQGCEFENTVHKWISITEALAFFHCCLNPILYAFLGAKFKTSAQHALTSVSRGSSLKILSKGKRGGHSSVSTESESSSFHSS
